The source of these data is PMC11996680, “KIF1C activates and extends dynein movement through the FHF cargo adapter” (Nature Structural & Molecular Biology, 2025).

First the molecules themselves.
T1: C-terminal HOOK3 (residues 451–718) (human, UniProt Q86VS8 451-718)
T1 construct: also called H^C; source: Sf9, co-expressed with FTS and FHIP1B, purified (Strep-Tactin, PreScission, SEC); not shown: Strep II, N-terminal, cleaved
T1 sequence (looked up): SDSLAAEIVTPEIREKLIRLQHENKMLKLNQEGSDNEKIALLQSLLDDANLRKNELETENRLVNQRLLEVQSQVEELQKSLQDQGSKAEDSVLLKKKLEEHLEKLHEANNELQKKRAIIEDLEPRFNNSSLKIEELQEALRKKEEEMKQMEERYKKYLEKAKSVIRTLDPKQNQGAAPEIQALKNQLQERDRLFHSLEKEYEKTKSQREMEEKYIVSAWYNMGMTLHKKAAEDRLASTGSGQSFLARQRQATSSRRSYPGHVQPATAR

T2: full-length HOOK3 (of FHF co-expression) (human, UniProt Q86VS8 1-718)
T2 construct: HOOK3, human, full length; gene codon optimized for Sf9; Captured on Strep-Tactin by the tag, then released with PreScission protease before gel filtration; source: Sf9, co-expressed with FTS and FHIP1B or FHIP2A, purified (Strep-Tactin, PreScission, SEC); not shown: Strep II, N-terminal, cleaved
T2 sequence (looked up): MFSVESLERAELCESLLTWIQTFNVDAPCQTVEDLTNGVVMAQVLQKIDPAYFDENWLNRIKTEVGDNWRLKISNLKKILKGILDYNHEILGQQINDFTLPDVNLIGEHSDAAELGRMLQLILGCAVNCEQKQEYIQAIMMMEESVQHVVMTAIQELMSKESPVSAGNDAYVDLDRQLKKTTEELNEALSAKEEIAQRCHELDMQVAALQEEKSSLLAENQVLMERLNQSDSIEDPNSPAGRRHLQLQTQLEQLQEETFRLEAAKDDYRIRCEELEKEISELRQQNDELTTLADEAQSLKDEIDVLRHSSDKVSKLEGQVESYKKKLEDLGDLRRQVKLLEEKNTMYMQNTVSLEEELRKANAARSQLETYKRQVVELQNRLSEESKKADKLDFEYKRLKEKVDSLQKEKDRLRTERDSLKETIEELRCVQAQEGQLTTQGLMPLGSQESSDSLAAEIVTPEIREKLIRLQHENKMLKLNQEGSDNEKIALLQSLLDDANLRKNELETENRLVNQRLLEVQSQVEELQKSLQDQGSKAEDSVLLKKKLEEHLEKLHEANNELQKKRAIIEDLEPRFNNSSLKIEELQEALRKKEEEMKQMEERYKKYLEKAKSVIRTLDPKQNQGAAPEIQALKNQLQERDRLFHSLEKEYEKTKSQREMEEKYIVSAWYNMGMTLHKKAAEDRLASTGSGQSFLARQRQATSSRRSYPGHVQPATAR

T3: KIF1C–GFP (full-length KIF1C fused to a C-terminal eGFP) (human, UniProt O43896 1-1103)
T3 construct: kinesin-3 KIF1C, human, full length (residues up to 1103 are named); also called KFL; KFL–GFP; not shown: eGFP, C-terminal, kept
T3 sequence (looked up): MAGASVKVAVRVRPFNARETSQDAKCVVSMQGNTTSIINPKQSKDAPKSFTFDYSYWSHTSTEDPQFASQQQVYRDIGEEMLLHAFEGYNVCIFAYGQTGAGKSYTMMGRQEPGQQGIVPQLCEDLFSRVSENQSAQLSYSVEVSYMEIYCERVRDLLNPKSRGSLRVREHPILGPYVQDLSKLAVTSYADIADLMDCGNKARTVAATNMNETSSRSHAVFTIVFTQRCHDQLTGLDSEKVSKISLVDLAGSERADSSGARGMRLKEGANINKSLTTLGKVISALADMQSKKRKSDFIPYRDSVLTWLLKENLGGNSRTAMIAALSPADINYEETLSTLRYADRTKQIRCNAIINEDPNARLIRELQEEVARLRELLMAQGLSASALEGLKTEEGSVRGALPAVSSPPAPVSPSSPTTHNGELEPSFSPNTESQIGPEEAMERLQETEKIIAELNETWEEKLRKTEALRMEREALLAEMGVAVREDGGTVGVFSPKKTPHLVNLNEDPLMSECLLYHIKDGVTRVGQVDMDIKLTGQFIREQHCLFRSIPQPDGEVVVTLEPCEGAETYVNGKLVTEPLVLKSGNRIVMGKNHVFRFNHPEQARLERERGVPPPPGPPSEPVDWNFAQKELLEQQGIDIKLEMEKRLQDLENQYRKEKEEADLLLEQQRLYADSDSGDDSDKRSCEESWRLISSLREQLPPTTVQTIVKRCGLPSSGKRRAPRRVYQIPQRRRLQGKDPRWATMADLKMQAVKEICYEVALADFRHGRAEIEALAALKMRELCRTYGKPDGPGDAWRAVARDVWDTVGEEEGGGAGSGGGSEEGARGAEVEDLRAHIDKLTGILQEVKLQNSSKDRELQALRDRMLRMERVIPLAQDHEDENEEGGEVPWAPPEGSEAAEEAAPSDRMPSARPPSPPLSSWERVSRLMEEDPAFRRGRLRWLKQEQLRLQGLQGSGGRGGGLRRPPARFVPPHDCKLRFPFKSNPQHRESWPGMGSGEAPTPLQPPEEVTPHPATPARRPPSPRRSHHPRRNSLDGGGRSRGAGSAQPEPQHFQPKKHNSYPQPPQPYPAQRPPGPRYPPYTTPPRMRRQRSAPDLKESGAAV

B1: C-terminal HOOK3 fragment (residues 571–718) (domain or fragment, human, UniProt Q86VS8 571-718, looked up)
chain: DLEPRFNNSSLKIEELQEALRKKEEEMKQMEERYKKYLEKAKSVIRTLDPKQNQGAAPEIQALKNQLQERDRLFHSLEKEYEKTKSQREMEEKYIVSAWYNMGMTLHKKAAEDRLASTGSGQSFLARQRQATSSRRSYPGHVQPATAR
notes: gene codon optimized for Sf9; Captured on Strep-Tactin by the tag, then released with PreScission protease before gel filtration; Two copies form the coiled coil in the structure; source: Sf9, co-expressed with FTS and FHIP1B or FHIP2A, purified (Strep-Tactin, PreScission, SEC); not shown: Strep II, N-terminal, cleaved
B2: GST–KIF1C stalk (residues 642–922) (domain or fragment, human, UniProt O43896 642-922, looked up)
chain: EMEKRLQDLENQYRKEKEEADLLLEQQRLYADSDSGDDSDKRSCEESWRLISSLREQLPPTTVQTIVKRCGLPSSGKRRAPRRVYQIPQRRRLQGKDPRWATMADLKMQAVKEICYEVALADFRHGRAEIEALAALKMRELCRTYGKPDGPGDAWRAVARDVWDTVGEEEGGGAGSGGGSEEGARGAEVEDLRAHIDKLTGILQEVKLQNSSKDRELQALRDRMLRMERVIPLAQDHEDENEEGGEVPWAPPEGSEAAEEAAPSDRMPSARPPSPPLSSWE
notes: KIF1C, human, amino acids 642-922 (CC2, stalk globular domain, CC3); A tandem TEV site lies between GST and KIF1C; also called KS; GST-tagged KIF1C stalk; source: E. coli SoluBL21, purified (Ni-NTA, SEC); not shown: GST, N-terminal, kept
B3: GST-KIF1C stalk 674-922 (domain or fragment, human, UniProt O43896 674-922, looked up)
chain: SDSGDDSDKRSCEESWRLISSLREQLPPTTVQTIVKRCGLPSSGKRRAPRRVYQIPQRRRLQGKDPRWATMADLKMQAVKEICYEVALADFRHGRAEIEALAALKMRELCRTYGKPDGPGDAWRAVARDVWDTVGEEEGGGAGSGGGSEEGARGAEVEDLRAHIDKLTGILQEVKLQNSSKDRELQALRDRMLRMERVIPLAQDHEDENEEGGEVPWAPPEGSEAAEEAAPSDRMPSARPPSPPLSSWE
notes: KIF1C, human, residues 674-922; Based on the original GST–KIF1C stalk plasmid; also called KIF1CS^2; KIF1CS^674–922; source: E. coli SoluBL21, purified (Ni-NTA, SEC); not shown: GST, N-terminal, kept
B4: HOOK3-SNAPf labeled with Alexa-647 (natural protein, human, UniProt Q86VS8 1-718, looked up)
chain: T2 sequence (looked up)
modifications: Alexa-647 on the SNAP tag
notes: HOOK3, human, amplified from a human cDNA library from the start codon to the last codon; also called HOOK3-Alexa 647; source: Sf9, purified (Ni-NTA, IgG Sepharose, cut off the beads with TEV protease); not shown: 8xHis, N-terminal, cleaved; ZZ, N-terminal, cleaved; SNAPf, C-terminal, kept

Data set [1] concerns the molecule itself. In words: cryo-EM structure; FTS, FHIP1B and HOOK3 571–718, co-expressed in Sf9 and purified as one complex; 3.2 Å; 0.9 mg/ml with 0.1% CHAPSO or 0.005% Igepal.
The data set “GST-KIF1C stalk 674-922” has as its target B3. In words: cross-linking; cross-linking mass spectrometry; 10 mM EDC or 5 mM DSSO, room temperature, 60 min; full-length FHF or FH^571-718F with KIF1C stalk 674-922. Conditions: both partners purified.
Data set [2] has as its target T4, full-length FTS–HOOK3–FHIP1B complex (human, UniProt Q86VS8 1-718; Q9H8T0 1-292; Q8N612 1-972).
T4 construct: HOOK3, human, full length; FTS, human, full length; FHIP1B, human, full length; SEC-MALS gave ~304 kDa for the full-length complex; also called FHF; full-length FHF; source: Sf9, co-expressed, purified (Strep-Tactin, PreScission, SEC); not shown: Strep II, N-terminal, cleaved; copies: 2 + +
In words: mass photometry; full-length FHF with KIF1C stalk, 100 nM in GF150, Refeyn TwoMP. Conditions: both partners purified.

In data set [3] the target is T1, C-terminal HOOK3 (residues 451–718). In words: cryo-EM structure; FH^451–718F with GST-KIF1C stalk 674–922; 4.8 Å, low resolution at the KIF1C stalk density; no atomic model. The conditions noted are these: both partners purified.
Data set [4] addresses T2, full-length HOOK3 (of FHF co-expression). In words: cross-linking; cross-linking mass spectrometry; 10 mM EDC or 5 mM DSSO, room temperature, 60 min; full-length FHF or FH^571-718F with KIF1C stalk 674-922. The conditions noted are these: both partners purified.
The target in data set [5] is T3, KIF1C–GFP (full-length KIF1C fused to a …). In words: single-molecule TIRF microscopy, co-movement on microtubules; 200 nM TMR–dynein, 200 nM dynactin, 1,600 nM labeled adapter and 180 nM KIF1C-GFP mixed at ~75 mM KCl, on ice 45–60 min, diluted 1:20 or 1:40; biotin-microtubules held on the coverslip; 25 °C. The conditions noted are these: both partners purified.

T4 sequence (Q9H8T0 whole entry, chain 2 of 2): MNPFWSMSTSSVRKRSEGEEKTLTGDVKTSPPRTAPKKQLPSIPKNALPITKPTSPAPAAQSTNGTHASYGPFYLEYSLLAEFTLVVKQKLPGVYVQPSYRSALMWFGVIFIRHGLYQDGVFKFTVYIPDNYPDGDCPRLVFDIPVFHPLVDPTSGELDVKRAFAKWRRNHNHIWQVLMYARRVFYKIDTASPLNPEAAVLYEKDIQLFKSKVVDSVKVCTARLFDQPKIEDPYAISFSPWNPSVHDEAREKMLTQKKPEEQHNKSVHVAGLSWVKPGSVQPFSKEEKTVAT
T4 sequence (Q8N612 whole entry, chain 3 of 2): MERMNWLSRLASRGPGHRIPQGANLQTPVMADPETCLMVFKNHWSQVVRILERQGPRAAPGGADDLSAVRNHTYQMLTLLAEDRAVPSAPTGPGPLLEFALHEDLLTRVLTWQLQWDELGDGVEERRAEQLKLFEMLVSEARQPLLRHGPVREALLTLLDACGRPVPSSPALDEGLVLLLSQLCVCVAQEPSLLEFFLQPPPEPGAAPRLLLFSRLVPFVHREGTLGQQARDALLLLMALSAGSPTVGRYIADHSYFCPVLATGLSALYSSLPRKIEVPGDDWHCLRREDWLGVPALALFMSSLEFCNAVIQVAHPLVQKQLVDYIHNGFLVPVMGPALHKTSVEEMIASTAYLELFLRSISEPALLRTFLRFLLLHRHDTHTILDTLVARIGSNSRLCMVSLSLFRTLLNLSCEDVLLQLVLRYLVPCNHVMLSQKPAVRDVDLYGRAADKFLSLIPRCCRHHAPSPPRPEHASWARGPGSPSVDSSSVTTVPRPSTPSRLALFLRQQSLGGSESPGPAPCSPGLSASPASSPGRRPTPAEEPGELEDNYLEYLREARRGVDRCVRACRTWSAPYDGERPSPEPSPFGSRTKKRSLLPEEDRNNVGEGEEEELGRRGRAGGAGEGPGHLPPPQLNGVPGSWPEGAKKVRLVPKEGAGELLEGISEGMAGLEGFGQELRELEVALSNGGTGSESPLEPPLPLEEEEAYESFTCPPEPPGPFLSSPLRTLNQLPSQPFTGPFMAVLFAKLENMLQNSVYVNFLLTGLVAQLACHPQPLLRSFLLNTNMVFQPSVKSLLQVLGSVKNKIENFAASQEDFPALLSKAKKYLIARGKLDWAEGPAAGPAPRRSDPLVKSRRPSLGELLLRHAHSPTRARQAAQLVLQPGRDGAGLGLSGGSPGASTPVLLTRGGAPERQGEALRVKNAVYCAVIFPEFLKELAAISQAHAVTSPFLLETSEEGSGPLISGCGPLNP

As for B1, the binding result (in data set [1]; with GST-KIF1C stalk 674-922) was “binds” in each case. For B2, the “stoichiometry N” value in data set [2] was 1 dimeric KIF1C stalk per FHF.

For B3, the binding result in data set [3] and in data set [4] was “binds” in each case. Turning to B4, the binding result in data set [5] is recorded as “binds”.
